According to the supplement of paper PMC9942255:

Test system: Bacillus subtilis DB104 (SP-AmyQ fusion secretion)
Experiment: AmyQ secretion efficiency, weighted average sort bin (1 = best secretion, 10 = worst) (bin number (weighted average, 1-10)); higher = lower secretion efficiency
In short: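 The secretion score gives the average bin number weighted by read frequency and normalised to beads per bin, with low-abundance sequences excluded. Bins were 10 equally populated green/red fluorescence ratio fractions of occupied ~65 nL alginate beads, sorted by large-particle flow cytometry. The beads held fluorescein-starch and about 0.3 cells each of an amyE-integrated B. subtilis DB104 library fusing designed signal peptides to mature AmyQ, and they were grown about 13 h at room temperature and stained with nile red before sorting and Illumina sequencing.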

Sequence	AmyQ secretion efficiency
MGLGKKLSVAVAASFMSLSPGVQAAEG	1.73
MRKNRILALFVLSLGLLSFMVTPISAASK	2.15
MGLGKKGTYRVAASFMSLSISLPGVQAAEG	4.07
MKSCKQLIVCSLAAILLLRRKVSFAADS	7.65
MKKVLMAFIICLSLILSVLAAPPSGPKAESV	3.78
MRKKRVITCVMAASLTLGSLLPAGYATAKKR	2.88
MKKVKKRKRKCLSLILSVLAAPPSGAKAESV	7.36
MKKQIITATTAVVGAASAQSI	7.59
MKKWSTTIAMLILAGIALFVFISPLKSHKT	5.92
MKKWIYVVLVLSIAGIGGFSVHGASS	7.27
MKVLLSALLLLLFAFEPSRSGKKL	6.31
MGLGKKLSVAVAASFMSLSISLSPGVQAAEG	1.19
MTGSLLSSLAISALSLGLLVSAPTASFAAES	5.96
MKRIRIPMTLALGAALTIAPLVFASAEEN	4.55
MKNMSCKLVVSVTLFFSFLTAHAQNS	6.96
MRKNRILALFVLSLGLLRRKVTPVSAASK	7.91
MKLSVKIAGVLTVAAAAMTAKMYATEKGN	4.74
MKKRFFGPIILAFILFAAIAIPS	6.38
MNFKKTITTSSSVVSALSISALALSVSGVASAHEI	4.04
MKTLRNMLSTLCVLMILSGVIFFGLKIDAKDI	6.22
MKKRITYSLRRLLAVVAFAFTDSSKAKAAEA	5.28
MPYLKRVLLLLVTGLFMSLFAVTATESAQTG	4.4
MLKKVILAAFILVGSTLGRKSFSSKASAKHV	6.14
MRSYIKVLTMCFLGLILFVPTALTDNS	5.81
MPIKKKVMMCTSGTTSFGSMSFPTLTNSGGFKE	7.09
MRSKKLWISLLFALTLIFTMAFSNMSVVTGAQAAGK	2.11

Sequence	AmyQ secretion efficiency
MTMLRKIIGWILLLCIIPLFAFTVIASGAPV	6.61
MSKRLIAPMLLSAASLAFFAMSGSAQAAAY	3.13
MKRIRIPMTLALGAALTIAPLSFASAAKR	4.18
MKKMLMLAFTFLLALTIHVGEASAVRK	2.01
MKKRITYSLLALLAVVAFAFFISSKAKAAEA	5.19
MKKVLMAFIICLSLILSVLAAPPSGDKAESV	5.71
MLGSTSFVSSLFISSAVLLSILLPSGQAHAQSA	2.1
MNKLKRLSMLTVMIASVFIFSSHQLAAQY	4.72
MKKSQYFIVFICFFVLFSVHPIAAAEADS	3.09
MRKRQGSGYGGLMMFGTITAASASPD	7.27
MFTWIYVVLVLSIAGIGGFSVHAASS	5.5
MKKKLAAGLTASAIVGTTLVVTPAETATI	5.92
MKKERGGTYVLCLSLSPLVSTNEVFAATT	8.09
MTIIIAIIAAVIVIAALITFNVRNASPG	7.45
MKVPKTMLLSTAAGLLLSLTATSCSAHYV	4.58
MKKVMLATALFLGLTPAGANAASK	2.96
MNKPTKLFSTLALAAGMTEDEAGGAGTIHAQQP	2.79
MRNLTKTSLLLAGLCTAAQMVFVTHISAEES	3.9
MGGGSFSIVFLILLLMLTLVVAPKEKAEAASS	1.53
MMQIMIFLTSFMLLAMTGQTALAKDV	4.32
MKLKSKLLLSCLALSTVFVATTIANIPTH	5.95
MKVLLSALLLLLFAFEPSGSGKKL	5.88
MGFGSTLVVSALSISALALSVSGVASAHEI	3.47
MGTLTTLTSLLLAGLCTAAQMVFVTHASAEES	3.24
MKKLLAAGIIGLLTVSIASPVFAAEK	2.43
MKKTIMSFVAVAALSTTAFGAHSSAKEI	3.37

Sequence	AmyQ secretion efficiency
MKLSVKIAGVLTVAAAAMTAKMYATTKGN	5.53
MKTKTLFIFSAILTLSIEDEDEETFAQTA	5.99
MKKAFLVFLSVVLVTTVFLVKQQESVAQTKQL	2.14
MKKRITYSLLALLAVVAFAFLTDSSKAKAAEA	3.06
MRNLTKTSLLLAGLCTAAQMVFVTHGSAEES	4.68
MIMLWRSLALCGLALTLAPCAQAAEP	4.91
MNKRFFGPIILAFILFAGAIAIPS	7.33
MRSKKLWISLLFALTLIFTMAFSNMSAQPAGK	3.56
MKKWMITIAMLILAGIALFVFISPRKSHKT	4.44
MKRRKTAYLLLGILCSAAVFLIGAPSRALGAEV	2.77
MKRIRIPMTLALGAALTIAPLSFASLEEN	6.43
MKKVSALTPSTTLAITAKAKEL	6.89
MRFTKVRRRRKKLGLAAVFPLTAQAEKA	7.25
MKKIVSILFMFGLVMGFSQFQPSTVFADED	4.03
MKKRFFGPIILAFILFAGAIKIPS	5.25
MKLSVKIAGVLTVAAAAMTAKMYNTAKGN	6.07
MMKKLFHSTLIVLLFFSFFGVQPCHAKKQ	1.69
MRFTKFMSIVVGFLSVLGLAAVFPLTAQAEKA	2.72
MKRKQQKSLAISALSLGLLVSAPTASFAAES	3.07
MTKKAWFLPLVCVLLISGWLAPAASKSAQTT	4.7
MKKAAAVLLSLGLVFGFSYGAGHVAENKTK	4.78
MSKLVLCVSILAVILSGVALTQLS	6.37
MKLSVKIAGVLTVAAAAMTAKMYATAKKK	5.42
MKSKGSIMACLILFSFTITTFINTETWSAFSN	7.56
MKVLLSALLLLLFAFEPSSSGKKL	6.37
MKKELLASLVLCLSLDDDDETNEVFAATT	5.98

Sequence	AmyQ secretion efficiency
MFNRLFRYCTLAALIMAFTLPNSVYAQKP	1.93
MISKKLWISLLFALTLIFTMAFSNMSAQAAGK	1.95
MKKKQVMLALTAAAGLGLTALHSAPAAKSAPL	3.28
MPYLKRVLLLLVTGLFMSLFAVTATHSAQTG	6.96
MRMLWRSLALCGLALTLAPCAQLAEP	6.58
MKWMCSICCAAVLLAGGAAQTEAV	3.03
MNKPTKLFSTLALAAGMTAAAAGGAGTVHAQQP	2.25
MSKWMITIAMLILAGIALFVFISPLKSHKT	5.71
MRGKSAVLLSLIMLIAGFLISFDFQM	6.6
MPIKKKVMMCLAVTLVFGSMSFPTLTNSGFFKE	4.32
MKKIRRRKRKCLAALFTIGFPAQQADAAEA	7.19
MKKRFSLIMMTGLLFGLTKKRAFAAEK	6.54
MNKKYFVLIVCIIFTSALFPTFSSVTTAQG	1.05
MKSKWMSGLLLVAVGFSFTQVMTHAGET	7.1
MLCVMMLLFSAIAKRRVSAQAKDQ	7.83
MKKWMATGSLAAAVLLCLMVPQQIQGASS	2.83
MIAYFGKCLLLVTIMFLGVLFGMSQANHG	4.69
MTKKAWFLPLVCVLLIDEDLAPAASASAQTT	2.58
MKKWLIIAVSLAIAIVLFMSVSFFAKAAGM	5.66
MKQGKFSKRLILLLMLTLVVAPKEKAEAASS	1.59
MNLRKILLSSALSLGMLVSAAPVLMTSS	4.51
MKSKWMSGLLLVAVGFSFTLFSSAVVSTQVMVHAGET	7.18
MKLAKRVSALTPSTTLAITKKAKEL	6.57
MRFTKVVGFLSVLGLAAVFPLTVQAEKA	3.18
MKKVMLATALFLGLTPDGANAADL	4
MKRFSTAYLLLGILCSAAVFLIGAPSRALAAEV	2.35

Sequence	AmyQ secretion efficiency
MKRFLIGAGVAAVILSGWFIADHQKHSQEM	5.36
MFKKLLLATSALTPLDGHAKAQEV	5.8
MKVPKTMLLSTAAGLLLSLTATSVSIHYV	5.12
MTMLRKIIGWILLLCIIPLFAFTVIASSKEV	6.98
MKRSISIFITCLLITLLKRKKRRASPASAAGT	6.57
MRFTKVVGFLSVLGLAAVFPLTAQTEKA	5.69
MKLWMRKTLVVLFTIVTFGLVSPPAALMSDKP	3.94
MKKIVSILFMFGLVMGFSQFQPSTMFAADK	2.83
MKKRKKKVSSLFISSAVLLSILLPSGQAHAQSA	1.03
MRKSLITLGLASFTILVIGTSSFLIPFTSKTASAETL	1.81
MNKFLKSNFRFLLAAALGISLLASSNFAKASND	1.03
MKRNIFNNINLSLLSTLLIGIMLLTFAPSAFAKQD	2
MSKVLMAFIICLSLILSVLAAPPSGAKAESV	2.82
MKLRKVLTGSVLSLGLLVSASPAFATSR	1.56
MLKKIALTLCPAIVGSLLFFTAPASRHVS	6.05
MKRIRIPMTLALGAALTIAPLSFASAAPK	1.85
MKRKLLSSLAISALSLGLLVSAPTASFARKR	3.11
MKRIRIPMTLALGAALTIAPLSFASAATD	2.9
MKRIRIPMTLALGAALTIAPLDKASAEEN	3.1
MGLGKKLSVAVAASFMSLSISLPGVQPAEG	4.8
MKLRKVLTGSVLSLGLLVSASPAFATRK	2.53
MKLWMRKTLVVLFTIVTFGLVIATFTTVAVSPPAALMADKP	4.44
MPYLKRVLLLLVTGLFMSLFAVTATGSAQTG	1.13
MAIIIAIIAAVIVIAALITFNVRNAKKR	7.34
